T1: human TIGIT-mFc (human, UniProt Q495A1 22-141, limits assumed)
T1 construct: the whole entry NP_776160.2 is named; also called antigen TIGIT-mFc; not shown: Fc protein fragment of a mouse IgG (mFc)
T1 sequence (looked up): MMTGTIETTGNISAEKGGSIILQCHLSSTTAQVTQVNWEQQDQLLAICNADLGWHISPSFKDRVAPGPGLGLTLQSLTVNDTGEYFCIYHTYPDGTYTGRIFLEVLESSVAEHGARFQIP

T2: 293T-TIGIT cell membrane surface antigen TIGIT (human, UniProt Q495A1 22-244)
T2 construct: whole, on cells; also called cell membrane surface TIGIT
T2 sequence (looked up): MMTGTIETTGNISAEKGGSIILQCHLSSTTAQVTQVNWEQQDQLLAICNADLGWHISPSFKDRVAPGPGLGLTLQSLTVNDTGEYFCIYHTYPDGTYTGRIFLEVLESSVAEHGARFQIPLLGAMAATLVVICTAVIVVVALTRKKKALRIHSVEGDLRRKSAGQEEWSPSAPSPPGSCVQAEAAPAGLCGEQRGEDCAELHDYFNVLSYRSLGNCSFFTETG


Key:
[1] = molecular target: T1, human TIGIT-mFc; assay: indirect ELISA screening with human TIGIT-mFc as antigen
[2] = molecular target: T2, 293T-TIGIT cell membrane surface …; assay: FACS on 293T-TIGIT cells
Method: The cells were diluted, 300 thousand cells were added to each well of a transparent V-bottomed 96-well plate, and 200 μL of 1% PBSA was added to each tube. The mixtures were centrifuged for 5 min, and the supernatants were discarded. […] The mixtures were centrifuged for 5 min, and the supernatants were discarded. The plate was washed twice. […] 200 μL of PBSA was added to each tube. The mixtures were centrifuged for 5 min, and the supernatants were discarded. The cells were resuspended by adding 200 μL of PBSA, and the suspensions were transferred into flow cytometry tubes to measure the mean fluorescence intensity of the cells at each concentration by a flow cytometer.

[3] = molecular target: T1, human TIGIT-mFc; assay: ELISA, TIGIT-mFc captured on goat anti-mouse IgG Fc
Method: (§1) Experimental steps: a microplate was coated with goat anti-mouse IgG Fc at 2 μg/mL, and incubated at 4° C. for 16 h. After incubation, the microplate coated with goat anti-mouse IgG Fc was washed once with PBST, and then blocked with a PBST solution containing 1% BSA as a microplate blocking solution for 2 h. After blocking, the microplate was washed 3 times with PBST. Then, 1 μg/mL antigen human TIGIT-mFc was added, and the plate was incubated at 37° C. for 30 min and then washed 3 times with PBST. The antibodies serially diluted with the PBST solution were added to the wells of the microplate. The microplate containing the test antibodies was incubated at 37° C. for 30 min, and then washed 3 times with PBST. After washing, HRP-labeled goat anti-human IgG Fc secondary antibody working solution diluted in a ratio of 1:5000 was added, and the microplate was incubated at 37° C. for 30 min. After incubation, the plate was washed 4 times with PBST, TMB (Neogen, 308177) was added for chromogenesis in the dark for 4 min, and then a stop solution was added to terminate the chromogenic reaction. The microplate was put into a microplate reader immediately, and the OD value of each well in the microplate was read at 450 nm. The data were analyzed and processed by SoftMax Pro 6.2.1.

[4] = molecular target: T1, human TIGIT-mFc; assay: as above; remark: listed apart in the source
Method: as §1

[5] = molecular target: T2, 293T-TIGIT cell membrane surface …; assay: FACS competition vs CD155 (10 nM) on 293T-TIGIT cells
Method: (§2) The cells were diluted, 300 thousand cells were added to each well of a transparent V-bottomed 96-well plate, and 200 μL of 1% PBSA was added to each tube. The mixtures were centrifuged for 5 min, and the supernatants were discarded. […] The plate was incubated on ice for 30 min. […] 200 μL of 1% PBSA was then added to each tube. The mixtures were centrifuged for 5 […], and the supernatants were discarded. The plate was washed twice. APC goat anti-mouse IgG (minimal x-reactivity) antibody (diluted 300-fold with PBSA) was added to each sample, and the mixtures were incubated on ice in the dark for 40 min. 200 μL of PBSA was added to each tube. The mixtures were centrifuged for 5 min, and the supernatants were discarded. The cells were resuspended by adding 200 μL of PBSA, and the suspensions were transferred into flow cytometry tubes to measure the mean fluorescence intensity of the cells at each concentration by a flow cytometer.

[6] = molecular target: T2, 293T-TIGIT cell membrane surface …; assay: FACS competition vs CD112 (30 nM) on 293T-TIGIT cells
Method: as §2

[7] = molecular target: T1, human TIGIT-mFc; assay: competition ELISA vs CD155-hFc-Biotin (1 ug/mL), coated TIGIT-mFc
Method: (§3) Experimental steps: a microplate was coated with TIGIT-mFc at 2 μg/mL, and incubated at 4° C. overnight. After incubation, the antigen-coated microplate was rinsed once with PBST, and then blocked with a PBST solution containing 1% BSA as a microplate blocking solution for 2 h. After blocking, the microplate was washed 3 times with PBST. The antibodies serially diluted with the PBST solution was added to the microplate. […] The microplate was incubated at 37° C. for 30 min, and then washed 3 times with PBST. After washing, SA-HRP working solution diluted in a ratio of 1:4000 was added, and the microplate was incubated at 37° C. for 30 min. After incubation, the plate was washed 4 times with PBST, TMB (Neogen, 308177) was added for chromogenesis in the dark for 5 min, and then a stop solution was added to terminate the chromogenic reaction. The microplate was put into a microplate reader immediately, and the OD value of each well in the microplate was read at 450 nm. The data were analyzed and processed by SoftMax Pro 6.2.1.

[8] = molecular target: T1, human TIGIT-mFc; assay: as above; remark: listed apart in the source
Method: as §3

[9] = molecular target: T1, human TIGIT-mFc; assay: BLI (Fortebio), TIGIT-mFc on AMC sensor, Ab 0.06-5 nM, 37 C, 1:1 fit
Method: The sample dilution buffer was PBS (0.02% Tween-20, 0.1% BSA, pH 7.4). TIGIT-mFc was immobilized on an AMC sensor at a concentration of 3 μg/mL for 50 s, and the sensor was equilibrated in the buffer for 60 s. The TIGIT-mFc immobilized on the sensor was allowed to bind to antibody at concentrations of 0.06-5 nM (three-fold dilutions) for 120 s, and the protein was dissociated in the buffer for 300 s. The sensor was regenerated with 10 mM glycine solution (pH=1.7). The detection temperature was 37° C., the detection frequency was 0.3 Hz, and the sample plate shaking rate was 1000 rpm. The data were analyzed by 1:1 model fitting to obtain affinity constants.

binding result [1]	EC50 [2]	EC50 [3]	EC50 [4]	EC50 [5]	EC50 [6]	EC50 [7]	EC50 [8]	Kd [9]	Maximum signal height of analyte [9]	S E (kdis) [9]	S E (kon) [9]	koff [9]	kon [9]	Binder
binds	–	–	–	–	–	–	–	–	–	–	–	–	–	26B12 (antibody, V domains shown, Murine hybridoma antibody; also called monoclonal antibody secreted by hybridoma cell line LT019) VH: EVQLQESGPGLVKPSQSLSLTCTVTGHSFTSDYAWNWIRQFPGNRLEWMGYISYSDSTNYNPSLKSRISITRDTSKNQFFLQMNSVTTEDTATYYCARLDYGNYGGAMDYWGQGTSVTVSS VL: DIVLTQSHEFMSTSLRDRVSITCKSSQHVSTAVAWYQQKPGQSPKLLIYSASYRYTGVPDRFTGSGSGTDFTFTISSVKAEDLAVYYCQQHYITPWTFGGGTKLEIK
–	1.26 nM	0.036 nM	0.039 nM	1.21 nM	1.22 nM	0.254 nM	0.236 nM	0.0316 nM	0.16 nm	3.46e-05 s⁻¹	184000 M⁻¹ s⁻¹	0.000144 s⁻¹	4.56e+06 M⁻¹ s⁻¹	RG6058 (antibody, V domains shown) VH: EVQLQQSGPGLVKPSQTLSLTCAISGDSVSSNSAAWNWIRQSPSRGLEWLGKTYYRFKWYSDYAVSVKGRITINPDTSKNQFSLQLNSVTPEDTAVFYCTRESTTYDLLAGPFDYWGQGTLVTVSS VL: not shown
